The source of these data is the DeepSol protein solubility set.

This series in a line: soluble on expression in E. coli; label from the status in PepcDB or PDB records.
In the case of “MMSESNKQQAVNKLTEIVANFTAMISTRMPDDVVDKLKQLKDAETSSMGKIIYHTMFDNMQKAIDLNRPACQDTGEIMFFVKVGSRFPLLGELQSILKQAVEEATIKAPLRHNAVEIFDEVNTGKNTGSGVPWVTWDIVPDGDDAEIEVYMAGGGCTLPGRSKVLMPSEGYEGVVKFVFENISTLAVNACPPVLVGVGIATSVETAAVLSRKAILRPIGSRHPNPKAAELELRLEEGLNRLGIGPQGLTGNSSVMGVHIESAARHPSTIGVAVSTGCWAHRRGTLLVHADLTFENLSHTRSAL”, the “soluble on expression in E. coli” value is on record as “not soluble”.
“MSLPAYKRVLLKLSGEALMGDDAFGINRSTIEGMVNDIAEIVRLGVQVAVVIGGGNIFRGVAGGAAGMDRATADYMGMLATMMNALALQDAMRHANIEGRVQSALRMDQVVEPYIRPRAIRQLEEGKVVIFAAGTGNPFFTTDTAAALRGSEIGAEIVLKATKVDGVYTADPKKDPSATRYTTISFDEAISRNLQVMDATAFALCRDQKLPIKVFSIQKPNALKRVIMGEDEGTLEGHHHHHH”: the “soluble on expression in E. coli” value was “soluble”.
Regarding “ATEPFMKGRVKLLPDILPGKNKDHEFEALVSTIQDMSLKMMELMVERPPRELILSMRRNKNPMYQINFASANISTSIAVKQELLEISKMKDRGYRLLYLLHKELQVMELKASIQMKTREEMDKQQKEYFLQQQIKTIQEELGGNINDIEVQELRTKAATMKWSSEVAETFEKELRKLERLHPQSPDYSVQMQYVQTIISLPWGVFSKDNFNLKRAQSVLDRDHFGLEKVKERIIEHLAVLKMKGDMKSPIICLYGPPGVGKTSLGKSIAESLGRKYVRISLGGLHDEAEIRGHRRTYIGAMCGRIIQSLQRAGTSNPVFVLDEIDKIDSDYKGDPSSALLEVLDPEQNNAFHDNYLDIDFDLSHVLFIATANSLSSISRPLLDRMELIDV”, the “soluble on expression in E. coli” value is recorded as “not soluble”.
As to “MGSDKIHHHHHHMAVECIKDKVTRYPERASYSDEDLVAMLDRNFTCTVSFIDGGIPYAIPMMLASEGKTIYLHGSMKSRIYGILKTGQLIAISLLEINGIVLAKEIKNNSINYVSALIFGRPYEIDDTEKKIEVFRLLTEKLVKGRRDNSIKPSYEDLNGVFVFAVKPETFSMKARTGPPHDTSTDDIWSGVLPIQHTISEAGENAPEYVKSLYGKRIFI”, the “soluble on expression in E. coli” value was “not soluble”.
With “GGIYGIGLDITELKRIASMAGRQKRFAERILTRSELDQYYELSEKRKNEFLAGRFAAKEAFSKAFGTGIGRQLSFQDIEIRKDQNGKPYIICTKLSPAAVHVSITHTKEYAAAQVVIERLSS” the entry was “soluble”.
With “MGSDKIHHHHHHMVEEQHVTQYGSLLKPCMSRLENLLVHQYVECWLYWSCYETETDTRIRGIWQFMFEQELKHLHIALELLRQYEKKDWQEVIPDAEFPAPLVLESNIEYVRCVLGSTVNDTACRERYVDVRNNAPETFIRYQRMVNDPVRNVMSHTFIEDYIRKNGEDYRFEVAPNPVPELRDRTKDNICVGRQPLCRNRY” the entry was “not soluble”; with “TTHKFEHPLNEKTRIYLRVESLLRQAHLASGFADNHQYQLFFRALFDMVEIFEQIQLKSELAKDLEKQRLSYRHWLNVEGVDQEALNSLLNEIDVVHSQLMGAERFGQALKEDRFLSSIRQRFNLPGGSCCFDLPALHYWLHLPIERKKHDANQWQKSLKPLSDALTLWLKLARETGHFKAQIARAGFFQSDADEANILRLHIPMKYGVYPMISGHKNRFAIKFMAFENGQACSQDVEFELAVC”, “soluble”.
“MKKYLLSFLLSMILTLTSHAESNPDPTTYPDVELSPPPRISLRSLLTAQPIKNDHYDSHNYLSTHWELIDYKGKEYEKLRDGGTLVQFKVVGAAKCFAFPGEGTTDCKDIDHTVFNLIPTNTGAFLIKDALLGFCMTSHDFDDLRLEPCGISVSGRTFSLAYQWGILPPFGPSKILRPPVGRNQGS”: the “soluble on expression in E. coli” value is “soluble”.
As for “MGHHHHHHSHMCSSGGPVDRAPDSSKDGKNHHKTMGHYNHNDSLRKTQINSLKNSVACPGAQKAITSSEAVDRFMPRTTQLQERKRRREDDRKLGTFLQTNPTGNEIMIGPLLPDISKVDMHDDSLNTTANLIRHKLKEVISSVPKPPEDKPEDVHTSRPLKQRRRI”, the “soluble on expression in E. coli” value is listed as “soluble”.
With “MGSDKIHHHHHHMANNYMKRKDRIILTAVEIIDQLGVQGLTIREIASRQEISEAAIYRHFANKSEILLGTIDYFSSYDALLFRTIESQNMKAWEGITFLLASYTEYYENYPAITAVTFTQEAFQLEPEARERMENVIDNRLRFIKQMVIKGQKEGEFTRDICSEGIVDIIFGTVQFIILRWRAKNYDFALKEHVLSTLSILIEAFSTVKLENRFAWGGVFNQEVSSSTFDSVLTRPGLFLEKGKDQVNEKSEG” the entry was “not soluble”.
